Laboratory results published in the nanobody polyreactivity screen of Harvey et al. (2022).

Assay: yeast display, Sf9 membrane polyspecificity reagent, FACS + sequencing; frameworks hold sequencing errors
Method in brief: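 Polyreactivity labels are assigned by the sorting gate from which each nanobody was recovered. The gates were low and high (top ~1%), set on anti-HA fluorescence for expression and streptavidin fluorescence for reagent binding. Before sorting, galactose-induced (36–48 hours) yeast display cells were stained for 1 hour at 4 °C with 10% biotinylated, detergent-solubilized Sf9 membrane reagent.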

Row | Sequence | polyreactivity (PSR sort gate)
1 | QVQLVESGGGLVQAGGSLRLSCAASGRTFASYAMGWYRQAPGKERELVASIRYSGGSTHYADSVKGRFTISRDNAKNPVYLQMNSLKPEDTAVYYCNARPKFRTYNYWGQGTQVTVSS | high polyreactivity
2 | QVQLVESGGGLVQAGGSLRLSCAASGRTFASYVMGWYRQAPGKERELVAAIDWHTGSTYYADSVKGRFTISRDNAKNTVYLQMNSLKPEDTAVYYCAAVYFLYPEGYWQTLYEYYYWGQGTQVTVSS | low polyreactivity
3 | QVQLVESGGGLVQAGGSLRLSCAASGRTFATYAMGWYRQAPGKERELVAAISSGGSTYYADSVKGRFTISRDNAKNTVYLQMNSLKPEDTAVYYCAVYVDYYGYGYWGQGTQVTVSS | high polyreactivity
4 | QVQLVESGGGLVQAGGSLRLSCAASGRTFAVNAMGWYRQAPGKESELVAAISQRAGRTYYADSVKGRFTISRDNAKNTVYLQMNSLKPEDTAVYYCNVVGFRSRVGSRGYWGQGTQVTVSS | high polyreactivity
5 | QVQLVESGGGLVQAGGSLRLSCAASGRTFAVYAMGWYRQAPGKERELVAAISGRGGNTYYADSVKGRFTISRDNAKNTVYFQMNSLKPEDTAVYYCAAKAYQSEYGYWGQGTQVTVSS | high polyreactivity
6 | QVQLVESGGGLVQAGGSLRLSCAASGRTFAVYAMGWYRQATGKERELVAAISSGGSTYYADSVKGRFTISRDNAKNTVYLQMNSLKPEDTAVYYCTARWGYRRGYCGQGTQVTVSS | high polyreactivity
7 | QVQLVESGGGLVQAGGSLRLSCAASGRTFAWKAMGWYRQAPGKERELVAAMSSRGTSTYYADSVKGRFTISRDNAKKTVYLQMNSLKPEDTAVYYCAKYTNPASGEYGYWGQGTQVTVSS | high polyreactivity
8 | QVQLVESGGGLVQAGGSLRLSCAASGRTFAWYAMGWYRQAPGKERELVAAISSGGSTYYADSVKGRFTISRDNAKNTVYLQMNSLKPEDTAVYYCAAEWHYIYAYDSWGQGTQVTVSS | low polyreactivity
9 | QVQLVESGGGLVQAGGSLRLSCAASGRTFAWYAMGWYRQAPGKERELVAAITTRGSGTYYADSVKGSFTISRDNAKNTVYLQMHSLKPEDTAVYYCAKDPITATTLDERVYYWGQGTQVTVSS | low polyreactivity
10 | QVQLVESGGGLVQAGGSLRLSCAASGRTFAYNAKGWYRQPPGKERELVASITVGGGSTYYADSVKGRFTISRDNAKNTVYLQMNSLKPEDTAVYYCAARVPSWKYDYWGQGTQVTVSS | high polyreactivity
11 | QVQLVESGGGLVQAGGSLRLSCAASGRTFAYNAMGWYRPAPGKERELVAAITGSGGRTYYADSVKGRFTISRDNAKNTVYLQMNSLKAEDTAVYYCAVGLPSRYDYWGQGTQVTVSS | low polyreactivity
12 | QVQLVESGGGLVQAGGSLRLSCAASGRTFAYNAMGWYRQAPGKEREMVASITSGGSTNYADSVKGRFTISRDNAKNNVYLQINSLIPEDTAVYYCNIDGKYHLVLYDYWGQGTQVTVSS | low polyreactivity
13 | QVQLVESGGGLVQAGGSLRLSCAASGRTFAYYAMGWYRQAPGKERELVAAIDSSGGSTYYADSVKGRFTISRDNAKNTVYLQMNSLKPEDTAVYYCAASYPYDRYDQGGYGYWGQGTQVTVSS | low polyreactivity
14 | QVQLVESGGGLVQAGGSLRLSCAASGRTFAYYAMGWYRQAPGKERELVSTITWSDGSTYADSVKGRFTISRDNAKNTVYLQMNSLKPEDTAVYYCAAQGWSWYWYYFYLFDYWGQGTQVTVSS | high polyreactivity
15 | QVQLVESGGGLVQAGGSLRLSCAASGRTFAYYTMGWYRQAPGKERELVDAISSRGGRTYYADSVKGRFTISRDNAKNTVYLQMNSLKPEDTAVYYCAAVSHGVYYQYRRRYYSWGQGTQVTVSS | high polyreactivity
16 | QVQLVESGGGLVQAGGSLRLSCAASGRTFCRYAMGWYIQAPGKERELVASISVSGGGTYYADSVKGRFTISRDNAKNTVFLQMNSLKPQDTAVYYCAARPVYYRYRRDYWGQGTHVTVSS | high polyreactivity
17 | QVQLVESGGGLVQAGGSLRLSCAASGRTFCTNAMGWYRQAPGKERELVAVISGSTGSTYYADSVKGRFTISRDNAKNTVYLQMNSLKPEDTAVYYCAASYRNTGRWSYRGDYWGQGTQVTVSS | high polyreactivity
18 | QVQLVESGGGLVQAGGSLRLSCAASGRTFCTNAMGWYRQAPGTERELVAVISGSTGSTYYADSVKGRFTISRDNAKNTVYLQMNSLKPEDTAVYYCAASYRNTGRWSYRGDYWGQGTQVTVSS | high polyreactivity
19 | QVQLVESGGGLVQAGGSLRLSCAASGRTFCYAMGWSRQAPGKERELVAAISYRGGGTYYADSVTGRFTISRDNAKYTVYLQMTSLKPEDTEVYFCNARQYRPWYPPYGYDYWGQGTQVTVSS | low polyreactivity
20 | QVQLVESGGGLVQAGGSLRLSCAASGRTFDAYTMGWYRQAPGKEMELVAAITFSGGNTYYADSVKGRFIISRDNAKNTVYLQMNSLKPEDTAVYYCAARHWIYSTDYSTYYEYDSWGQGTQVTVSS | low polyreactivity
21 | QVQLVESGGGLVQAGGSLRLSCAASGRTFDDNAMGWYRQAPGKEREFVADIDWSGGDTYYADSVKGRLTISRDNAKNTVYLQMNSLKPEDTAVYYCAARPIISVGRSRYDYWGQGTQVTVSS | high polyreactivity
22 | QVQLVESGGGLVQAGGSLRLSCAASGRTFDDYAMGRYRQAPGKERELVAVITDNGGGTNYADSVKGRFTISRDNAKNTVYLQMNSLKPEDTAVYYCNAASDDFYPGRRTYGRDYWGQGTQVTVSS | low polyreactivity

Row | Sequence | polyreactivity (PSR sort gate)
23 | QVQLVESGGGLVQAGGSLRLSCAASGRTFDDYTMGWYRQAPGKERELVAAITGGGSTNYADSVKGRFTISRDNAKNTVYLQMNSLKPEDTAVYYCNAEYSRSYRYDEGYWGQGTQVTVSS | low polyreactivity
24 | QVQLVESGGGLVQAGGSLRLSCAASGRTFDFYAKGWYRQAPGKERELVAAITFSTGSTTYADSVKGRFTISRDNAKNTVYLQMNSLKPEDTAVYYCAADGDGWWWSYVDRYDYWGQGTQVTVSS | low polyreactivity
25 | QVQLVESGGGLVQAGGSLRLSCAASGRTFDGYAMGWYRPAPGKERELVAAITYTGGSTYYADSVKGRFTISRDNAKNTVYLQMNSLKPEDTAVYYCNALYAVYSDFADDYWGQGTQVTVSS | low polyreactivity
26 | QVQLVESGGGLVQAGGSLRLSCAASGRTFDHNAMGWYRQAPGKERELVAAITSRGGSTYYADSVKGRFTISRDIAKYTGYLQMNSLKPEDTAVYYCAARKRSVYGTEYDYLGQGTQVTVSS | high polyreactivity
27 | QVQLVESGGGLVQAGGSLRLSCAASGRTFDIYAMGWYRPAPGKERELVAAISSGGSTYYADSVKGRFTISRDNAKNTVYLQMNSLKPEDTAVYYCAVRWYDQVSRRGIGYYWGQGTQVTVSS | low polyreactivity
28 | QVQLVESGGGLVQAGGSLRLSCAASGRTFDLYAMGWYRQAPGKERELVAAITKGGGSTYYADSVKGRFTLSRDNAKNTVYLQMHSLKPVDTAVYYCAARKYKRIYRISSGIGYYWGQGTQVTVSS | high polyreactivity
29 | QVQLVESGGGLVQAGGSLRLSCAASGRTFDLYAMGWYRQAPGKERELVATISRTGSTNYADSVKGRFTISRDNAKNTVYLQMNSLKPEDTAVYYCNADVPVSRWLRHGYYTVGYDYWGQGTQVTVSS | low polyreactivity
30 | QVQLVESGGGLVQAGGSLRLSCAASGRTFDRNAMGWYRQAPGKERELVAAITSSGDSTYYADSVKGRFTISRDNSKNTVYLQMNSLKPEDTAVYYCAAGRRFGYWGQGTQVNVSS | high polyreactivity
31 | QVQLVESGGGLVQAGGSLRLSCAASGRTFDSNAMGWYRQAPGKERELVAAISGSGDTTYYADSVKGRFTISRDNAKNTVYLQMNSLKPEDTAVYYCAARWGRSSGGGDYWGQGTQVTVSS | low polyreactivity
32 | QVQLVESGGGLVQAGGSLRLSCAASGRTFDSNAMGWYRQAPGKERELVAAISSGGGSTYYADSVKGRFTISRDNAKNTVYLQMNSLKPEDTAVYYCAAVYHYYRGVNYWGQGTQVTVSS | high polyreactivity
33 | QVQLVESGGGLVQAGGSLRLSCAASGRTFDTYAMGWYRQAPGKERELVAAITRRTYYADSVKGRFTISRDNAKNTVYLQMNSLKPEDTAVYYCAVRFLRKWTSSRHYGYWGQGTQVTVSS | high polyreactivity
34 | QVQLVESGGGLVQAGGSLRLSCAASGRTFDYNAMGWSRQAPGKERELVAAISSSGGSTYYADSVKGRFTISRDNAKNTVYLQMNSLKPEDTAVYYCATLYPRKSIYYYWGQGTQVTVSS | high polyreactivity
35 | QVQLVESGGGLVQAGGSLRLSCAASGRTFDYNAMGWYRQAPGKERELVAAISSSGGTTYYADPVKGRFTISRDNAKNTVYLQMNSLKPEDTAVYYCNADVGHKYKRRVSLYYWGQGTQVTVSS | low polyreactivity
36 | QVQLVESGGGLVQAGGSLRLSCAASGRTFDYNAMGWYRQAPGKEWELVADIRLISGNTYYADSVKGRFTISRDNAKNTVYLQMNSLKPEETAVYYCAATSDGVPSLYGGMDYRGQGTQVTVSS | low polyreactivity
37 | QVQLVESGGGLVQAGGSLRLSCAASGRTFDYYAMGWYRQAPGKERELVARISWNGGSTRYADSVKGRFTISRDNAKNTVYLQMNSLKPEDTAVYYCAARYILLARKYDYWGQGTQVTVSS | high polyreactivity
38 | QVQLVESGGGLVQAGGSLRLSCAASGRTFDYYSMGWYRQAPGTERELVAAISSSGGRTYYADSVKGRFTISRDNAKNTVYLQMNSLKPEDTAVYYCNAVVSRNYEYWGQGTQVTVSS | high polyreactivity
39 | QVQLVESGGGLVQAGGSLRLSCAASGRTFEIYAMGWYRQAPGKERDLVAAITSGGSTYYADSEKGRFTISRDNAKNTVYLQMNSLKPEDTAVYYCAADSSLYGVIRDFDYWGQGTQVTVSS | high polyreactivity
40 | QVQLVESGGGLVQAGGSLRLSCAASGRTFELYAMGWYRQAPGKERELVAAIRQSDVSTYYADSVKGRFTISRDNAKNTVYLQMNSLKPEDTAVYYCAARNRYRRRYYYWGQGTQVTVSS | high polyreactivity
41 | QVQLVESGGGLVQAGGSLRLSCAASGRTFEPNAMGWYRPAPGKERELVAAISSSDGSTYYADSVKGRFTISRDNAKNTVYLQMNSLKPEDTAVYYCAADAGYLYDWPYNYYYWGQGTQVTVSS | low polyreactivity
42 | QVQLVESGGGLVQAGGSLRLSCAASGRTFEQYAMGWYRQARGKERELVAAISGSGGSTFYADSVKGRFTISRDNAKNTVYLQMNSLKPEDTAVYYCNAPGDGYLYDHTYDYWGQGTQVTVSS | low polyreactivity
43 | QVQLVESGGGLVQAGGSLRLSCAASGRTFEQYAMVWYRQAPGKERELVAAISGSGGSTFYADSVKGRFTISRDNAKNTVYLQMNSLKPEDTAVYYCNAPGDGYLYDHTYDYGGQGTQVTVSS | low polyreactivity
